The record followed here is the nanobody polyreactivity screen of Harvey et al. (2022).

The nature of the data set: yeast display, Sf9 membrane polyspecificity reagent, FACS + sequencing; frameworks hold sequencing errors. A digest of the protocol:
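In a synthetic yeast display library (Saccharomyces cerevisiae BJ5465), nanobody expression was induced with galactose for 36–48 hours. FACS gates were set low and high (top ~1%) using anti-HA fluorescence for expression and streptavidin fluorescence for binding of the Sf9 membrane reagent. Each polyreactivity label is drawn from the gate of origin.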
As for “QVQLVESGGGLVQAGGSLRLSCAASGIIFIVNAMGWYRQAPGKERELVAAISNGGSTNYADSVKGRFTISRDNAKNTVYLQMNSLKPEDTAVYYCAADDEGWWVTNYDYWGQGTQVTVSS”, the “polyreactivity (PSR sort gate)” value is “low polyreactivity”.

Take “HVQLVESGGGLVQAGCSLRLSCAASGSIFLRNTMGWYRQAPGKEREFVAAITKRGGTTYYADSVKGRFTMSRDNAKNTVYLQMNSLKPDDTAVYYCAKSYDNEYGYWGQGTQVTVSS”: the “polyreactivity (PSR sort gate)” value is on record as “high polyreactivity”.

“QVQLVESGGGLVQAGGRLRLSCAASGRIFYNYAMGWYRQAPGKERELVASINFSGTRTYYADSVKGRFTISRDYAKNHVYLQMNSLKPEDTAVYYCAARQAHGYYYWGQGTQVTVSS”: the “polyreactivity (PSR sort gate)” value is listed as “high polyreactivity”.

Consider “QVQLVESGGGLVQAGGSLRLSCAASGRIFVTYGMGWYRQAPGKERELVAAINWRGGSTYYADSVKGRFTISRDNAKNTVYLQMNSLKPEDTAVYYCNARLYRNRLGYWGQGTQVTVSS”, for which the “polyreactivity (PSR sort gate)” value is “high polyreactivity”.

Turning to “QVQLVESGGGLVQAGGSLRLSCAASGLTFYVYTMGWYRQAPGKERELVAVISSGDSTYYADSVKGRFTISRDNAKNTVYLQMNSLKPEDTAVYYCAAGTHYRIVRYGLYDYWGQGTQVTVSS”, the “polyreactivity (PSR sort gate)” value is on record as “low polyreactivity”.

As to “QVQLVESGGGLVQAGGSLRLSCAASGSTFVDYAMGWYRQAPGKEREFVAAISFSGDSTYYADSVKGRFTISRDNAKNSVYLQLNSLKPEDTAVYYCAASRPYYNRQYYRSWRDDYWGQGTQVTVSS”, the “polyreactivity (PSR sort gate)” value is recorded as “low polyreactivity”.

For “QVQLVESGGGLVQAGGSLRLSCAASGFIFWRYAMGWYRQAPGKERELVATITSSGGTTHYADSVKGRFTISRDNAKNTVYLQMNSLKPEDTAVYYCATRKGVGSLYYSRNYWGQGTQVTVSS”, the “polyreactivity (PSR sort gate)” value is on record as “high polyreactivity”.

For the sequence “QVQLVESGGGLVQAGGSLRLSCAASGRISVFYAMGWYRQAPGKERELVAAITRSGTTKYADSVKGRFTISRDNAKNTVYLQMNSLKPEDTAVYYCAADSSRFFYGVYNYRQYGYWGQGSQVTVSS”, the “polyreactivity (PSR sort gate)” value is “high polyreactivity”.

As for “QVQLVESGGGLVQAGGSLRLSCAASGSTFSKNAMGWYRQAPGKERELVAAINWSTGSTHYADSVKGRFTISRDNAKNTVYLQMNRLKPEDTAVYYCAAEGPKQYDYWGQGTQVTVSS”, the “polyreactivity (PSR sort gate)” value is recorded as “low polyreactivity”.

Turning to “QVQLVESGGRLVQAGGSLRLSCAASGFTFSSYAMGWYRQAPGKERELVAAISTRCGSTYYADSVKGRFTISRDNAKNTVYLQMNSLKPEDTAVYYCATGCRGGRRYEYWGQGTQVTVSS”, the “polyreactivity (PSR sort gate)” value is listed as “low polyreactivity”.

As for “QVQLVESGGGLVQAGGSLRLSCGASGFTFRPYAMGWYRQAPGKERELVAAITSGDSTNYADSVKGRFTISCDNAKNTVYLQMNSLKPEDTAVYYCAADSTGRPSVSYDYWGQGTQVTVSS”, the “polyreactivity (PSR sort gate)” value was “low polyreactivity”.

Take “QVQLVESGGGLVQAGGSLRLSCAASGSIFRTNTMGWYRQAPGKERELVARINRGGRTYYADSVKGRFTISRDNAKNTVYLQMNSLKPEDTAVYYCAAAPFFPHWYGYDYWGQGTHVTVSS”: the “polyreactivity (PSR sort gate)” value is recorded as “high polyreactivity”.

For “QVQLVESGGGLVQAGGRLRLICAASGSTFYYNALGWYRQAPGKERELVAGISRSGGSTYYADSVKGRFTISRDNAKNTVYLQMNSLKPEDTAVYYCAAKSYAYRWYDYWGQGTQVTVSS”, the “polyreactivity (PSR sort gate)” value is listed as “high polyreactivity”.

For “QVQLVESGGGLVQAGGSLRLSCSASGSIFKIYAMGWYRQAPGKERELVASITGSGGSTYYADSVKGRFTISRDNAKNTVYLQMNSLKPEDTAVYYCAAAVLGSSKSEVDPDRPEYYYWGQGTQVTVSS”, the “polyreactivity (PSR sort gate)” value is “low polyreactivity”.

“QVQLVESGGGLVQAGGSLRLSCAASGSTFTYYAMGWYRQARGKERELVAAISSGGSTYYADSVKGRFTISRDNAKNTDYLQMNSLKPEDTAVYYCAARGYYGKFSGTGYWGQGTQVTVSS”: the “polyreactivity (PSR sort gate)” value is given as “high polyreactivity”.

Take “QVQLVESGGGLFQAGGTLRLSCASSGLIFSRYAMGWYRQSPGKEWELVAGISTSGGRTYYADSVKGRFTISRYNAKNTVYFQMNSLKPEDTAVYYCAAQFKYRQINSYLLGDYWGQGTQVTVSS”: the “polyreactivity (PSR sort gate)” value is listed as “high polyreactivity”.

With “QVQLVESGGGLVQAGGSLRLTCAASGSILDSNAMGWYRQAPGKERELVSAITSGGSTYYADSVKGRFTISRDNAKNTVYLQMNSLKPEDTAVYYCAAAYLGYGAVQPSYEGGYWGQGTQVTVSS”, the “polyreactivity (PSR sort gate)” value was “low polyreactivity”.

Take “QVQLVESGGGLVQAGGSLRLSCAASGRTLFPNVMGWYRQAPRQERELFAAITTIGGSTYYADSVKGRITISRDNAKNTVFLQMNSLKPEDTEVYYCNARYRGRGLKFGYWGQGTQVTVSS”: the “polyreactivity (PSR sort gate)” value is “high polyreactivity”.

Consider “QVQLVESGGGLVQAGGSLRLSCAASGITFGGYAMGWYRQAPGKERELVASIRSGSTTNYADSVKGRFTISRDNAKNTVYLQMNSLKPEDTAVYYCAARNFRNRYGYWGQGTQVTVSS”, for which the “polyreactivity (PSR sort gate)” value is listed as “high polyreactivity”.

Consider “QVQLVESGGGLVQAGGSLRLSCAASGSTFALYTMGWYRQAPGKERELVAGITIDGSTNYADSVKGRFTISRDNAKNTVYLQMNSLKPEDTAVYYCNADSYKYPLLKYRSDYWGQGTQVTVSS”, for which the “polyreactivity (PSR sort gate)” value was “low polyreactivity”.

Consider “QVQLVESGGGLVQAGGSLRLSCAASGRIFSRNAMGWYRQAPGKERELVAGISARGGRTYYADSVKGRFTNSRDNAKNTVYLQMNSLKPEDTAVYYCAASFSAIRGGVRVTIDYYWGQGTQVTVSS”, for which the “polyreactivity (PSR sort gate)” value was “high polyreactivity”.

Turning to “QVQLVESGGGLVQAGGSLRLSCAASHANAIGWYRQAPGKERELVAAITYRGGSTYYADSVKGRFTISRDNAKNTVYLQMNSLKPEDTAVYYCNTDVYLYVYDFGYNYWGQGTQVTVSS”, the “polyreactivity (PSR sort gate)” value is reported as “low polyreactivity”.

Take “QVQLVESGGGLVQAGGRLRLSCAASGSTFDPNAEGWYRPAPGKARELVAVIDSGDGTTYYADSVKGRVTISRDKAKNTVYLQMNSLKPEDTAVYYCAAEFHWWYAGYDYGYWGQGTQVTVSS”: the “polyreactivity (PSR sort gate)” value is “low polyreactivity”.

Regarding “QVQLVESGGGLVQAGGSLRLSCADSGIIFRYYSMGWYRQAPGKESEFVAAITGSSGSTYADSVKGRFTISRDNAKNTVYLQMNSLKPEDTAVYYCNADSYSIWVYGEYDYWGLGTQVTVSS”, the “polyreactivity (PSR sort gate)” value is reported as “high polyreactivity”.

Consider “QVQLVESGGGLVHAGGSLRLSCAASGSTFRSYAMGWYRQAPGKERELVARISYRTGSTYYADSVKGRFTISRDYAKNTVYLQMNSLKPEDTAVYYCATRGSYVGGLYDYWGQGTQVTVSS”, for which the “polyreactivity (PSR sort gate)” value is given as “high polyreactivity”.

Consider “QVQLVESGGGLVQAGGSLRLSCAASGSISSKNAMGWYRQAPGKEREFVAVISGTGGSTYYADSVKGRLTISRDNAKNTVYLQMNSLKPEDTAVYYCAAAASSIVSYGYTWTYGYWGQGTQVTVSS”, for which the “polyreactivity (PSR sort gate)” value is “low polyreactivity”.

“QVQLVESGGGLVQAGGTLRLSCAASGSIFRYYAMGWYRQAPGKERELVATITSTGGSTYYADSVKGRFTISRDNAKNTVYLQMNSLKPEDTAVYYCAARNKWYVTVRGYYLSGFWGQGTQVTVSS”: the “polyreactivity (PSR sort gate)” value is listed as “high polyreactivity”.

“QVQLVESGGGLVQAGGSLRLSCAASGIIFGRYAMGWYRQAPGKEREFVAAITWRVGTTYYADSVKGRFTISRDNAKNTVYLQMNSLKPEDTAVYYCAARSRTGRYDYWGQGTQVTVSS”: the “polyreactivity (PSR sort gate)” value is “high polyreactivity”.

Turning to “QVQLVESGGGLGQAGGSLLLSCAASGSTFKYNAMGWNRKAPGKERELVPAISRGGRTNYADSVKGRFKISRDNAKNTVYLQMNSLKPEDTAVYYCAKDVAGLFHVGALYYYWGQGTQVTVSS”, the “polyreactivity (PSR sort gate)” value is recorded as “low polyreactivity”.

As to “QVQLVESGGGLVQAGGSLRLSCAASGSTLYYNAMGWYRKAPGKERELVADITSGGSTSYADSVKGRFTISRDNAKNTVYLQMNSLKPEDTAVYYCAAVFYRRFDYWGQGTQVTVSS”, the “polyreactivity (PSR sort gate)” value was “low polyreactivity”.
